Data as given in article PMC7461574.

Molecular target: non-glycosylated wild-type PAI-1 (PAI-1-wt) (human) (UniProt P05121)
Sequence of UniProt P05121 (P05121 24-402): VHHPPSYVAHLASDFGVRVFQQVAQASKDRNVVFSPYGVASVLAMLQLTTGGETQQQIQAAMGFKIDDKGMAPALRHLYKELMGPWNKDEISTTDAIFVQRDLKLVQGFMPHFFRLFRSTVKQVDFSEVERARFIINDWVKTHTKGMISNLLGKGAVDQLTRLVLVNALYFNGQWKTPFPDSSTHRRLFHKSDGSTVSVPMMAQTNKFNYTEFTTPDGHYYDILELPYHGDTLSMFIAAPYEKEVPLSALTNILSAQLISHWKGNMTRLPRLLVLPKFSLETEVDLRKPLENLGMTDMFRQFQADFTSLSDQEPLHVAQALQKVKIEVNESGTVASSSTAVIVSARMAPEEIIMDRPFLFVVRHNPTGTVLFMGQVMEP

IC50 of inhibition of PAI-1-wt activity, chromogenic plasminogen-coupled assay with tPA (residual tPA activity; pair blocked: PAI-1/tPA), Nb93 1 to 512 nM: 202 nM
maximum inhibition of PAI-1-wt activity, chromogenic plasminogen-coupled assay with tPA (pair blocked: PAI-1/tPA), Nb93 1 to 512 nM: 55%
B1: VHH-s-a93 (Nb93) (VHH)
VHH: QVQLVESGGGLVQPGGSLRLSCAASGFSLDNYAIGWFRQAPGKEREGVSCISSSDGSTYYTDSVEGRFTISRDNAKNTVYLQMNSLKPDDTAVYYCAADYGSSWCTFNGMDYWGQGTQVTVSS
